Drawing on paper PMC2777315 (PLoS Pathogens, 2009), this text covers koff and Kd for two molecules.

Holding throughout (conditions): both partners purified
Assay [1] has as its target T1, GST-IlsA fusion protein (IlsA, iron-regulated leucine-rich surface protein of Bacillus cereus ATCC 14579) (Bacillus cereus ATCC 14579, UniProt Q81G77 1-760).
T1 construct: also called IlsA-GST; purified IlsA; source: E. coli BL-21, purified (pellet solubilised in 8 M urea, dialysed, glutathione Sepharose 4B)
T1 sequence: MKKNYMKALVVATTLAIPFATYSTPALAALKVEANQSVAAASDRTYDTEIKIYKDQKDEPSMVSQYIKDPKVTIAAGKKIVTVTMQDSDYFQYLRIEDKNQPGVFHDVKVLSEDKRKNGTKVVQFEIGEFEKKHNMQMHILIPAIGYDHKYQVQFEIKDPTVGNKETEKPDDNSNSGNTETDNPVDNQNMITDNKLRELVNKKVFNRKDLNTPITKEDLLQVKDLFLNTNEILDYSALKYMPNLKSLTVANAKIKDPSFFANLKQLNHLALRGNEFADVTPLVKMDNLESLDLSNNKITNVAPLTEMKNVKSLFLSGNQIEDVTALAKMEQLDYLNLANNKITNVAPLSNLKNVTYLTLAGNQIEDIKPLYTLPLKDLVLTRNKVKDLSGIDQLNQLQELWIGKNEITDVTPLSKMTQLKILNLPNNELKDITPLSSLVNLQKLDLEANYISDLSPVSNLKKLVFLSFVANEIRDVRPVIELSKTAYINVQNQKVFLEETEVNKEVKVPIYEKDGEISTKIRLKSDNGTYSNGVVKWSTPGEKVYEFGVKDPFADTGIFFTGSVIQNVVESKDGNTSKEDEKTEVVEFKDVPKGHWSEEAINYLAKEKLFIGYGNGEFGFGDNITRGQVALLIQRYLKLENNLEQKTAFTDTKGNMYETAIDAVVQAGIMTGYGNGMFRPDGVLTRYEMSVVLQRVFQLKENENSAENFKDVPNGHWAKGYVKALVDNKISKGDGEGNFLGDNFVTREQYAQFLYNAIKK
The assay can be described thus: SPR. Background: Surface plasmon resonance follows binding to a sensor surface in real time, without labels.

The target in assay [2] is T1, GST-IlsA fusion protein (IlsA, …). Description: ELISA. In general terms: In an ELISA, binding on a coated surface is turned into a signal by an enzyme label.
For assay [3] the target is unchanged. Description: ELISA; hemoglobin or ferritin coated on plates in increasing amounts (0-180 nM), 0.1 M phosphate buffer pH 7.4; IlsA added at 30 nM, 2 h at 37°C; detected with polyclonal anti-IlsA; Kd estimated with Origin.
For assay [4] the target is unchanged. Description: SPR; BIAcore 3000; GST-IlsA captured by anti-GST antibody on a CM5 chip; ligands injected at 200 nM for 8 min, dissociation 10 min; 0.1 M phosphate buffer pH 7.4; 20°C; data did not fit a 1:1 model, indicative koff from the dissociation phase only.

B1: ferritin (complex)
chain 1: MSSQIRQNYSTEVEAAVNRLVNLYLRASYTYLSLGFYFDRDDVALEGVCHFFRELAEEKREGAERLLKMQNQRGGRALFQDLQKPSQDEWGTTLDAMKAAIVLEKSLNQALLDLHALGSAQADPHLCDFLESHFLDEEVKLIKKMGDHLTNIQRLVGSQAGLGEYLFERLTLKHD
chain 2: MTTAFPSQVRQNYHQDSEAAINRQINLELHASYVYLSMSFYFDRDDVALKNFAKYFLHQSHEEREHAEKLMKLQNQRGGRIFLQDIKKPDQDDWENGLKAMECALHLEKNVNESLLELHKLATDKNDPHLCDFLETHYLNEQVKAIKELGDHVTNLRRMGAPESGMAEYLFDKHTLGECDES
notes: source: bought: Sigma-Aldrich
For the molecule B1, the koff in assay [1] was 0.00171 s⁻¹. The molecule further displayed a dissociation constant Kd in assay [2] of 10 ± 3 nM.

B2: hemoglobin (complex)
chain 1: not shown
chain 2: not shown
For B2, the dissociation constant Kd in assay [3] is 3 ± 1 nM. In assay [4], this molecule registered a koff of 0.00148 s⁻¹.

In general, koff refers to the rate constant with which the complex falls apart. Lower therefore signals a long-lived complex. As usually defined, the Kd is the constant that tells how readily two partners part at equilibrium.
